Data published in the supplement of paper PMC10567573.
± gives the standard deviation.

Experiment: protein stability index of a GFP-peptide fusion (GPS, HEK-293T) (PSI 1-6); higher = more stable
[1] = treatment: DMSO, c terminus: a fixed tail appended
[2] = treatment: MLN4924 1 uM, 8 h, c terminus: a fixed tail appended
[3] = treatment: DMSO, c terminus: native
[4] = treatment: MLN4924 1 uM, 8 h, c terminus: native
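Note: 24-mer peptide tiles fused after GFP, lentivirally expressed, FACS-sorted into six equal bins by GFP/DsRed ratio, decoded by Illumina sequencing, PSI is the read-weighted mean bin number.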

Sequence	protein stability index [1]	protein stability index [2]	protein stability index [3]	protein stability index [4]
PNILFYASTVLKSVGFQSNEAASL [SLC2A12]	2.25 ± 0.33	2.38 ± 0.15		
ELFVREPTGRLPALVRWWNGIGAV [MYORG]	2.26 ± 0.38	2.4 ± 0.41		
KSPEMPVILEVSLEGSHDTANCEA [RTP4]	4.85 ± 0.11	5.07 ± 0.34		
ECRSSVTSDSEGAHVNTLHSGTKR [PHTF1]	4.87 ± 0.32	4.88 ± 0.17		
TDLIWKNQNSWGTGEDVKVILKNS [LMNB1]	3.47 ± 0.44	3.74 ± 0.26		
AGLNKDKETEERTDGERVAEVAPE [SDE2]	5.46 ± 0.33	5.63 ± 0.16		
TGASFQKAQQEFAAGVFSNPAVRT [SCAMP3]	3.73 ± 0.16	3.79 ± 0.25		
CDVWSIGCILFEYYRGFTLFQTHE [CLK3]	3.1 ± 0.48	3.25 ± 0.44		
LKRKGKTDSPWIKPARKRRRRSRK [EHMT1]	5.1 ± 0.17	5.03 ± 0.23		
RITKDNRRHCQACRLKRCVDIGMM [VDR]	2.42 ± 0.36	2.68 ± 0.29		
NCPWPMSCPGSSYRTVVRPTYKVM [EMID1]	2.62 ± 0.26	2.47 ± 0.4		
PILSRSTSTGSAASSGSNSSASSE [SPRY1]	5.42 ± 0.22	5.44 ± 0.19		
EIEQYRLQREKEFKAKEAAALGSR [ATP6V1G1]	4.15 ± 0.21	3.77 ± 0.047		
LLLGSPHPAATALHAELCQAGSSQ [LPCAT4]	3.01 ± 0.42	3.18 ± 0.21		
YHRETEGEEQSQYMHVGSCQHLSS [KCNA3]	4.09 ± 0.32	4.71 ± 0.47		
TRQLSEENANLQEYVEKETQEKKR [MTUS2]	5.33 ± 0.14	5.56 ± 0.12		
LRVEQKDFPAHRIVLAACSDYFCA [KLHL12]	2 ± 0.44	2.07 ± 0.29		
DGENLKNEEETPSCMASLWTAPLV [CDC25A]	4.484 ± 0.031	4.5 ± 0.19		
AILLDAHHKTYDPTYSDFCQFRPP [VDR]	2.31 ± 0.2	2.34 ± 0.29		
SKQTEKDPGVQELEALIDTIQKQL [EFHC1]	3.83 ± 0.28	3.86 ± 0.3		
VSPPESPTVTTSWQSESLPVSLSA [BCL2L13]	4.43 ± 0.08	4.37 ± 0.27		
SKYCYGPQGSRSPYIPPHAALCLE [FKBP8]	2.46 ± 0.54	2.74 ± 0.3		
KQQLVDAFLKLAKQRSVCTWGKNK [FAN1]	2.31 ± 0.21	2.25 ± 0.16		

Sequence	protein stability index [1]	protein stability index [2]	protein stability index [3]	protein stability index [4]
SPESSRGQCGENLAWASYDQTGKE [GLIPR2]	4.8 ± 0.21	4.73 ± 0.27		
WMHTPEALSKHFIPYNAKFLGSTE [GULP1]	2.27 ± 0.12	2.3 ± 0.16		
EDAEAVEQLREALHEALLEYEAGR [ESRRA]	4.03 ± 0.35	4.26 ± 0.18		
LVVFTASMEIYGSAVADKLDNSRS [CTDNEP1]	2.92 ± 0.74	2.26 ± 0.37		
VHRDLKPENLLLASKCKGAAVKLA [CAMK2B]	2.83 ± 0.38	2.75 ± 0.25		
EVLGPLCLMLLMGTVHCQIVSTQI [PHTF1]	3.27 ± 0.15	3.19 ± 0.2		
QFYGYLSQQQNMMQDYVRTGTYQR [CARM1]	2.47 ± 0.086	2.72 ± 0.22		
DFLMCYSVAEGYYSHRETVNGSWY [CASP6]	2.88 ± 0.8	2.86 ± 0.79		
ADVNAQSSTGNTALTYACAGGYVD [ANKRD17]	4.21 ± 0.39	4.49 ± 0.16		
DPDGEEGSSIPWNHLPDPEIFRQR [ZNF24]	4.97 ± 0.45	5.02 ± 0.15		
KETLAVNYEKEEEFLTNELSRKLM [CCDC6]	4.05 ± 0.25	4.44 ± 0.27		
ILPKELQAWVQKHHPENGEETVTM [ZNF396]	3.5 ± 0.07	3.58 ± 0.29		
NGHDCWSLISLSNNTGKNLELKFV [TENT5D]	2.51 ± 0.49	2.61 ± 1		
APAASEGAAAPATPTPVAAALDAC [SNAP91]	5.32 ± 0.23	5.18 ± 0.31		
TLTVFPPEETTPSPSRESPLSAP [KLHL13]			5.16 ± 0.15	5.18 ± 0.08
SLSVRHRQVKHYRIFRLPNNWYYI [SLA]	2.29 ± 0.7	2.58 ± 0.49		
DIAAMTNSLFIDRQKCMAHRTRYP [TEKT4]	2.45 ± 0.24	2.57 ± 0.19		
STPRPPEASSSPPEGSQDRNTSWG [TLE6]	5.32 ± 0.17	5.291 ± 0.047		
SPSENSKEAEILEVLRHPRDWVR [CPOX]			4.42 ± 0.15	4.53 ± 0.26
GAYIGEGRVEVLKNGEWGTVCDDK [LOXL2]	4.99 ± 0.36			
RPRRRDGPEHATRLNGTAKGERRR [DVL3]	5.06 ± 0.38	5.08 ± 0.42		
ALSPKTTITMAHLLAAREDLSKII [FAM98B]	2.29 ± 0.27	2.55 ± 0.065		
